The values below come from publication PMC9433323, “R-loop formation and conformational activation mechanisms of Cas9”.

In data set [1] the target is T1, SpCas9 wild type (Streptococcus pyogenes, UniProt Q99ZW2 1-1368). Description: cryo-EM; 1 mM Mg2+; checkpoint state; SEC binding: 20 mM HEPES-KOH pH 7.5, 200 mM KCl, 2 mM MgCl2, room temperature, 371 pmol dCas9, 400 pmol sgRNA, 250 pmol DNA; crystal complex: 20 mM HEPES-KOH pH 7.5, 250 mM KCl, 1 mM DTT, crystals at 20 C. The conditions noted are these: protein: recombinant; tags: His6-MBP-TEV tag removed by TEV protease; sgRNA strand 1; TS/NTS duplex with internal mismatched region; 18 nt guide-TS complementarity.
T1 sequence (Q99ZW2 whole entry): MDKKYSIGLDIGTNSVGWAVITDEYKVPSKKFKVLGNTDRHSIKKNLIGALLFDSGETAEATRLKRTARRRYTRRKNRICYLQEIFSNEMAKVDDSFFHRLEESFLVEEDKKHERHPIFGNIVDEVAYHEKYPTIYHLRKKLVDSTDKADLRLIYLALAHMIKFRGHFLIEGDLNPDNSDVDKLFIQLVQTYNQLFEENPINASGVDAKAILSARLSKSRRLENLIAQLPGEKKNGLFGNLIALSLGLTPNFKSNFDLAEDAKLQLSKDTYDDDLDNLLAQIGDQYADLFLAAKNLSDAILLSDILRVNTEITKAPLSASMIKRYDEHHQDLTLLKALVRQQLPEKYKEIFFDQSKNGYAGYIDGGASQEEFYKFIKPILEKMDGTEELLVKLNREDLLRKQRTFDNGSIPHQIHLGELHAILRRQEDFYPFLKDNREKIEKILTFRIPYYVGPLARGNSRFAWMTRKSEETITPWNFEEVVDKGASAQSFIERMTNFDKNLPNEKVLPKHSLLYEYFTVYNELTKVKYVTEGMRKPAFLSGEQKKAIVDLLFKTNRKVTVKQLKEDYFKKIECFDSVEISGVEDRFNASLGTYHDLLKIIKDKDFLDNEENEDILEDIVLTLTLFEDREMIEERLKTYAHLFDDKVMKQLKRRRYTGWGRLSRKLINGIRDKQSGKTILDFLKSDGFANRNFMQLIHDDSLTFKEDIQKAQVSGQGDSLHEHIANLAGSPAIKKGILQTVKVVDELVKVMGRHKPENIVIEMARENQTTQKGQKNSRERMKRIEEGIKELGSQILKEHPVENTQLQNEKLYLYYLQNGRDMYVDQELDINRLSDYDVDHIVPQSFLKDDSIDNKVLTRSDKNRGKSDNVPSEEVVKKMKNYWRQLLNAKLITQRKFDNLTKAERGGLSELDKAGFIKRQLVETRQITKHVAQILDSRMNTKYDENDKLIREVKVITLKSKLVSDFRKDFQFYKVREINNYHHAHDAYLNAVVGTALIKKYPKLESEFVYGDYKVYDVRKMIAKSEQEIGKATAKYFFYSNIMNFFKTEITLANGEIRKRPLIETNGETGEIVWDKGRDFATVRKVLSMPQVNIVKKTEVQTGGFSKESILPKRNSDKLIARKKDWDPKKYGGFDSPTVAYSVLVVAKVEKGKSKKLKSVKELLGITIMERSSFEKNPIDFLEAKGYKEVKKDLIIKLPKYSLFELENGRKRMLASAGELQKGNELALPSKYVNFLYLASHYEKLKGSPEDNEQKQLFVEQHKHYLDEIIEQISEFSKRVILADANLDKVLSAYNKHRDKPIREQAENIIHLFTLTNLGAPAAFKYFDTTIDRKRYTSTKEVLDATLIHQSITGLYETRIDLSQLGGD

The target of data set [2] is T1, SpCas9 wild type. Description: cryo-EM; 10 mM Mg2+; catalytically active state, TS and NTS cleaved; SEC binding: 20 mM HEPES-KOH pH 7.5, 200 mM KCl, 2 mM MgCl2, room temperature, 371 pmol dCas9, 400 pmol sgRNA, 250 pmol DNA; crystal complex: 20 mM HEPES-KOH pH 7.5, 250 mM KCl, 1 mM DTT, crystals at 20 C. The conditions noted are these: protein: recombinant; tags: His6-MBP-TEV tag removed by TEV protease; sgRNA strand 1; TS/NTS duplex with internal mismatched region; 18 nt guide-TS complementarity; both DNA strands cleaved in structure.

B1: 18-nt match checkpoint: λ1 sgRNA (3-stem loop) / TS / NTS (mixed)
RNA: GACGCAUAAAGAUGAGACGCGUUUUAGAGCUAGAAAUAGCAAGUUAAAAUAAGGCUAGUCCGUUAUCAACUUGAAAAAGUGGCACCGAGUCGGUGCUUUU
DNA 1: CGTGATTCCAGCGTCTCATCTTTATGCGAGTGTACTCG
DNA 2: CGAGTACACTATTGCGGGACGCTATTATTGGAATCACG
On to B1, for which the binding result in the data set with SpCas9 wild type [1] is “binds”.

B2: 18-nt match catalytic: λ1 sgRNA (3-stem loop) / TS / NTS (mixed)
RNA: GACGCAUAAAGAUGAGACGCGUUUUAGAGCUAGAAAUAGCAAGUUAAAAUAAGGCUAGUCCGUUAUCAACUUGAAAAAGUGGCACCGAGUCGGUGCUUUU
DNA 1: CGTGATTCCAGCGTCTCATCTTTATGCGAGTGTACTCGTCTTGC
DNA 2: GCAAGACGAGTACACTCGCATAAAACGCTATTATTGGAATCACG
For the molecule B2, in the data set with SpCas9 wild type [2], the binding result is reported as “binds”.
